Experimental data from article PMC3061877, “Comparison of the Frequency of Functional SH3 Domains with Different Limited Sets of Amino Acids Using mRNA Display” (PLoS ONE, 2011).

Biological target: wild-type src SH3 domain (T7·tag/His6 construct) (UniProt P00523 81-140)
Assay: other fluorescence titration; fluorescence perturbation assay; aliquots of peptide added to SH3 domain (0.5 µM) in PBS pH 7.4, 10 min at 20°C; excitation 278 nm, emission 350 nm
Conditions: both partners purified

Kd: 2300 ± 470 nM
B1: VSL12 peptide (peptide)
peptide: VSLARRPLPPLP
notes: The methods of the fluorescence perturbation assay say only 'peptide VSL12'; also called free VSL12 peptide; peptide VSL12; source: synthetic peptide, bought: Invitrogen
